Results on one molecule are retold here after paper PMC6879612 (Nature Communications, 2019).

The test deals with T1, p53_(125–134)/HLA-A24 pMHC, soluble recombinant (Homo sapiens, HLA-A*24:02, biotin where the biotinylated pMHC was used (site not stated)).
T1 construct: HLA-A24 heavy chain (α-chain), recombinant; β2-microglobulin, recombinant; source: biotinylated or non-biotinylated; copies: + +
Nature of the test: ELISA; biotinylated pMHC captured on NeutrAvidin-coated wells; IgG1 in solution, detected with HRP anti-human IgG Fcγ. Particulars: both partners purified.

B1: P1C1 (parental clone), human IgG1 (antibody, V domains shown)
VH: QLQLQESGPGLVKPSQTLSLTCAVSGGSISSGGYYWSWIRQRPGKGLEWIGYIYYSGSTYYNPSLKSRLTISVDTSKNQFSLKLSSVTAADTAVYYCARENFGAFDHWGQGTLVTVSS
VL: QAVLTQPSSVSGAPGQRVTISCTGSSSNIGADYETHWYQHLPGTAPKLLIYGNTNRPSGVPHRFSGSKSGTSASLAITGLQAEDEADYYCQSYDSNLSAWVFGGGTKLTIL
notes: heavy framework 1 of the parental clone; heavy CDR1 (Kabat); heavy framework 2, CDR2, framework 3; heavy CDR3 (Kabat); heavy framework 4; light framework 1 of the parental clone; light CDR1 (Kabat); light framework 2, CDR2, framework 3; light CDR3 (Kabat); light framework 4; Human IgG1; From a naive human Fab phage library (Humanyx); also called parental P1C1 antibody; source: HEK293-6E, pTT5 …
On to B1, for which the binding result is reported as “binds”.
